doi:10.1101/2023.06.15.545071, “POLARIS is a copper-binding peptide required for ethylene signalling control in Arabidopsis” (bioRxiv, 2023)

Molecular target: T1, PLS linked to a C-terminal GFP (p35S::PLS:GFP) (Arabidopsis thaliana, UniProt Q8LLV8 1-36)
T1 construct: POLARIS (PLS) peptide, Arabidopsis thaliana, 36 amino acids; 'the 105-nucleotide PLS gene (without the stop codon)' in pEarlyGate103; source: Nicotiana benthamiana leaves, Agrobacterium infiltration, transient expression, in protein extract; not shown: GFP, C-terminal, kept
T1 sequence (Q8LLV8 whole entry): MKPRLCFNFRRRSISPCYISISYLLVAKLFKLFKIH
Experiment: co-IP; PLS:GFP and ETR1:HA co-expressed in N. benthamiana leaves, 3 d; anti-GFP beads or anti-HA beads, western blot; extract with 0.5 μM copper sulphate or 2 mM EDTA
Details: partners not purified

fold more co-precipitated with copper ions than with 2 mM EDTA: ~3 fold
B1: ETR1 with a C-terminal HA tag (p35S::ETR1:HA) (receptor, Arabidopsis, UniProt P49333 1-738, looked up)
chain: MEVCNCIEPQWPADELLMKYQYISDFFIAIAYFSIPLELIYFVKKSAVFPYRWVLVQFGAFIVLCGATHLINLWTFTTHSRTVALVMTTAKVLTAVVSCATALMLVHIIPDLLSVKTRELFLKNKAAELDREMGLIRTQEETGRHVRMLTHEIRSTLDRHTILKTTLVELGRTLALEECALWMPTRTGLELQLSYTLRHQHPVEYTVPIQLPVINQVFGTSRAVKISPNSPVARLRPVSGKYMLGEVVAVRVPLLHLSNFQINDWPELSTKRYALMVLMLPSDSARQWHVHELELVEVVADQVAVALSHAAILEESMRARDLLMEQNVALDLARREAETAIRARNDFLAVMNHEMRTPMHAIIALSSLLQETELTPEQRLMVETILKSSNLLATLMNDVLDLSRLEDGSLQLELGTFNLHTLFREVLNLIKPIAVVKKLPITLNLAPDLPEFVVGDEKRLMQIILNIVGNAVKFSKQGSISVTALVTKSDTRAADFFVVPTGSHFYLRVKVKDSGAGINPQDIPKIFTKFAQTQSLATRSSGGSGLGLAISKRFVNLMEGNIWIESDGLGKGCTAIFDVKLGISERSNESKQSGIPKVPAIPRHSNFTGLKVLVMDENGVSRMVTKGLLVHLGCEVTTVSSNEECLRVVSHEHKVVFMDVCMPGVENYQIALRIHEKFTKQRHQRPLLVALSGNTDKSTKEKCMSFGLDGVLLKPVSLDNIRDVLSDLLEPRVLYEGM
notes: 'the ETR1 cDNA' in pEarlyGate301; source: Nicotiana benthamiana leaves, Agrobacterium infiltration, transient expression, in protein extract; not shown: HA, C-terminal, kept
